Assay [1] concerns the target T1, human MCAM (melanoma cell adhesion molecule), expressed on transfected CHO cells (human, UniProt P43121 24-646).
T1 construct: also called hMCAM; CD146
T1 chain: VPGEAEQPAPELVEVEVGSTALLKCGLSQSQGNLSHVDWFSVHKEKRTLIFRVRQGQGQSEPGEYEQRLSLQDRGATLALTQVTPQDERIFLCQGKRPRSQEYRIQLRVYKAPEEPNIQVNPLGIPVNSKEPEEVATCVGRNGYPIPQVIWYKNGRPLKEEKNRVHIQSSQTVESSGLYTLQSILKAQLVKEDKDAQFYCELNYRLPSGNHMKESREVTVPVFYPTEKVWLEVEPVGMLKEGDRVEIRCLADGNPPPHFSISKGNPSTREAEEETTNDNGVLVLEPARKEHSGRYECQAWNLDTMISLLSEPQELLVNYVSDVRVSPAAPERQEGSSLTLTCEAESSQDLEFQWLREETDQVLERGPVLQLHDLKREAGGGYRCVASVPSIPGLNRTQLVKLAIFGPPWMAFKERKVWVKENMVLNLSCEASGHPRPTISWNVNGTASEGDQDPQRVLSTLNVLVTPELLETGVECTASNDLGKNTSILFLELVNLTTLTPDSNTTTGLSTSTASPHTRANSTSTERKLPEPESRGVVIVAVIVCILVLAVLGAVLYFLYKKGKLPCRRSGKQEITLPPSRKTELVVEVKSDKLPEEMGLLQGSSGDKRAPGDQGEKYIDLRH
Put plainly: blocking assay of the re-expressed antibodies (Table 7 'Blocking IC50'; laminin/FACS assay of paragraph 438): % inhibition of laminin 411 binding to hMCAM-expressing CHO cells. The method, then: Following incubation for 30-45 minutes, the cells were washed and anti-laminin conjugated to AF650 (NovusBio) was added to detect the bound laminin. The cells were run on a flow cytometer to measure the laminin binding signal.

In assay [2] the target is recombinant human laminin 411 (Biolamina) (human, UniProt Q16363 25-1823; P07942 22-1786; P11047 34-1609). Kind of assay: SPR, Biacore T200, steady state, Fc-tagged MCAM IgG1-2A captured by anti-Fc, laminin as analyte.

B1: chimeric 2107 (antibody, V domains shown)
VH: QVQLKESGPGLVQSSQTLSLTCTVSGFSLTSNGVSWVRQPPGKGLEWIAAISSGGSTYYNSAFKSRLSISRNTSKSQVLLKMNSLQTEDTGMYFCARHRPFYFDYWGQGVMVTVSS
VL: DIQVTQSPSLLSASVGDRVTLNCKGSQNIYKSLAWFRLKRGEAPKLLIYDANSLQTGIPSRFSGSGSGTDFTLTITSLQPEDVATYFCQQYYSGYTFGAGTKLELK
For the molecule B1, in assay [1], the “IC50 (read off the curve)” value is about 0.5 mg/L.

B2: Recombinant human Fc-tagged MCAM IgG1-2A (human MCAM domains 1 and 2, amino acids 19-242) (Fc fusion)
chain: PRVAGVPGEAEQPAPELVEVEVGSTALLKCGLSQSQGNLSHVDWFSVHKEKRTLIFRVRQGQGQSEPGEYEQRLSLQDRGATLALTQVTPQDERIFLCQGKRPRSQEYRIQLRVYKAPEEPNIQVNPLGIPVNSKEPEEVATCVGRNGYPIPQVIWYKNGRPLKEEKNRVHIQSSQTVESSGLYTLQSILKAQLVKEDKDAQFYCELNYRLPSGNHMKESREVT
notes: also called human MCAM IgG1-2A; MCAM Fc domains 1 and 2; not shown: human Fc tag
One may read the Kd as the free concentration of one partner at which half of the binding sites on the other are occupied at equilibrium, for simple one-to-one binding. For B2, the Kd in assay [2] was determined as 0.066 µM.

B3: chimeric 1749 (antibody, V domains shown)
VH: DVKLVESGGDLVKPGGSLKLSCAASGFTFSSYIMSWVRQTPEKRLEWVATISSGGSSTYYPDSVKGRFTISRDNAKNTLYLQMSSLKSEDTAMYYCTRDDDYDVKVFAYWGQGTLVTVSA
VL: DIVMSQSPSSLAVSAGEKVTMNCKSSRSLLNSRIRKNYLAWYQQKPGQSPKLLIYWASTRESGVPDRFTGSGSGTDFTLTISSVQAEDLAVYYCKQSYNLLTFGAGTKLELK
As for B3, in assay [1], the “IC50 (read off the curve)” value is about 0.4 mg/L.

B4: h2107_VH2 + h2107_VL2 (antibody, V domains shown)
VH: QVTLKESGPVLVKPTETLTLTCTVSGFSLTSNGVSWVRQPPGKALEWIAAISSGGSTYYNSAFKSRLSISRDTSKSQVVLTMTNMDPVDTATYYCARHRPFYFDYWGQGTLVTVSS
VL: DIQMTQSPSSLSASVGDRVTITCKGSQNIYKSLAWFQLKPGKVPKLLIYDANSLQTGIPSRFSGSGSGTDFTLTISSLQPEDVATYYCQQYYSGYTFGGGTKVEIK
notes: also called h2107VH2VL2; VH2VL2
As to B4, the “IC50 (read off the curve)” value in assay [1] is about 0.8 mg/L.

Source of the values: patent US20140227292A1 (PROTHENA BIOSCIENCES, published 2014).
